# Source: patent publication US20090252748A1
# Key:
# [1] = target: human Sp35 protein expressed on transfected cells (human) (UniProt Q96FE5); assay: FACS, live human LINGO-1 transfected 293 cells, PE-labelled secondary antibody without primary antibody, FL2-H; Cell only 5.81 [panel 2nd Ab only]
# [2] = target: human Sp35 protein expressed on transfected cells (human) (UniProt Q96FE5); assay: FACS, live human LINGO-1 transfected 293 cells, PE-labelled secondary antibody without primary antibody, FL2-H; Cell only 4.71 [panel 2nd Ab only]
# [3] = target: human Sp35 protein expressed on transfected cells (human) (UniProt Q96FE5); assay: FACS, live human LINGO-1 transfected 293 cells, PE-labelled secondary antibody without primary antibody, FL2-H; Cell only 0.94 [panel 2nd Ab only]
# [4] = target: human Sp35 protein expressed on transfected cells (human) (UniProt Q96FE5); assay: FACS, live human LINGO-1 transfected 293 cells, PE-labelled secondary antibody without primary antibody, FL2-H; Cell only 4.47 [panel 2nd Ab only]
# CD32 = CD32 binding assay, format not described
# human Sp35 protein expressed on transfected cells (human), sequence (Q96FE5 40-620): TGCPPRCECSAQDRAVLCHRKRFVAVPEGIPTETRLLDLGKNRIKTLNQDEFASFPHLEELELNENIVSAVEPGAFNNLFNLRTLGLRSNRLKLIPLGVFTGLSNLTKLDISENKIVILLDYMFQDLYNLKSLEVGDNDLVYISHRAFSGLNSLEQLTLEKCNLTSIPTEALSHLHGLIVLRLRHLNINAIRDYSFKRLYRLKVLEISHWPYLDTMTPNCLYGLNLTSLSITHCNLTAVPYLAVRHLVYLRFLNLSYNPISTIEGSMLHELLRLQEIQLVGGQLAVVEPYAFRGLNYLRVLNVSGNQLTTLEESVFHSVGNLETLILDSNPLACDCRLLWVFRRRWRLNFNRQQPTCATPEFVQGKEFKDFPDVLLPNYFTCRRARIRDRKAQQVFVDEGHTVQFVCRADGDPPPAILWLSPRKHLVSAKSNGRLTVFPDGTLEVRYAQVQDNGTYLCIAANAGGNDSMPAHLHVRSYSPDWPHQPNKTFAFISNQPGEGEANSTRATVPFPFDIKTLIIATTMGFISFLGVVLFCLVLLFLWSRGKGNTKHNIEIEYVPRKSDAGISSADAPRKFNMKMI
(FL2-H) Mean [1],(FL2-H) Median [2],number over the marker gate of the FL2-H histogram [3],(FL2-H) Geom. Mean [4],IC50 (CD32) [µg/mL],Substance
8.78,6.76,5.52,6.6,,2nd Ab only (PE-labelled secondary antibody without primary antibody)
,,,,25,Li33Ig2 agly (antibody)
,,,,4.3,Li33Ig2 wt (antibody)
